Test results published in PMC5007448, “Molecular logic of the Zur-regulated zinc deprivation response in Bacillus subtilis”.

B1: PzinT (dsDNA)
DNA 1: ATGTATGTATAATAAATCGTAATGTTTTCGATTTAATAAAAAAGG
DNA 2: CCTTTTTTATTAAATCGAAAACATTACGATTTATTATACATACAT
B2: PznuA (dsDNA)
DNA 1: ATTTATTCTTGCAAAACGTAATGACTTCGGTTTATTATGATATAG
DNA 2: CTATATCATAATAAACCGAAGTCATTACGTTTTGCAAGAATAAAT
B3: PfolEB (dsDNA)
DNA 1: ACCGATCAAAATAAATAGTAATTATTACGATTTGTTAGTGAGAGG
DNA 2: CCTCTCACTAACAAATCGTAATAATTACTATTTATTTTGATCGGT
B4: PrpsNB (dsDNA)
DNA 1: GAATGATACATTTTAAATCGTAACAATTTCGATTTAAAGGGAGGC
DNA 2: GCCTCCCTTTAAATCGAAATTGTTACGATTTAAAATGTATCATTC
B5: PrpmEB (dsDNA)
DNA 1: GTAAGGTTATAAAATAAAACGTAATTATTACGATTTATTGAAAGG
DNA 2: CCTTTCAATAAATCGTAATAATTACGTTTTATTTTATAACCTTAC
B6: PyciC (dsDNA)
DNA 1: ACCATACAATTTAAGTCGTAACAATTACGTTTTATGATAAATGGC
DNA 2: GCCATTTATCATAAAACGTAATTGTTACGACTTAAATTGTATGGT

These binders were tested against Zur H124A (Bacillus subtilis, UniProt P54479 1-145, H124A) (assay: EMSA; 0.1 uM ZnSO4; 20 mM Tris-HCl pH 6.4, 50 mM KCl, 1 mM DTT, 0.1 mg/ml BSA, 5% glycerol, 0.1 ug poly(dI-dC) in 20 ul, 0.1 uM ZnSO4; room temperature 20 min; gel at 4 C in TA pH). Conditions: protein: recombinant; tags: none stated; chain copies: 2; label: 5'-32P; blunt.
Binder B1 has a Kd of 0.096 ± 0.0013 µM. With B2 the Kd was 0.11 ± 0.003 µM. B3 was tested, and the Kd was 0.1 ± 0.004 µM. Binder B4 has a Kd of 0.099 ± 0.0016 µM. Binder B5 has a Kd of 0.101 ± 0.0023 µM. Binder B6 has a Kd of 0.129 ± 0.0038 µM.

These binders were tested against Zur C84S (Bacillus subtilis, UniProt P54479 1-145, C84S) in the same assay as above. Conditions: protein: recombinant; tags: none stated; chain copies: 2; label: 5'-32P; blunt.
B1 was tested, and the Kd was 0.0755 ± 0.0053 µM. For B2, the Kd was 0.073 ± 0.002 µM. For B3, the Kd was 0.0286 ± 0.0025 µM. Work on B4 yielded a Kd of 0.0165 ± 0.0025 µM. B5 gave a Kd of 0.0779 ± 0.004 µM. Work on B6 yielded a Kd of 0.0806 ± 0.0032 µM.

Each binder was assayed against Zur WT (BsZur) (Bacillus subtilis, UniProt P54479 1-145) in the same assay as above. Conditions: protein: recombinant; tags: none stated; chain copies: 2; label: 5'-32P; blunt.
Binder B1 has a Kd of 0.0156 ± 0.0035 µM. In the case of B2, the Kd is reported as 0.0125 ± 0.004 µM. B3 was tested, and the Kd was 0.0219 ± 0.0039 µM. B4 showed a Kd of 0.0143 ± 0.0025 µM. For B5, the Kd was 0.0143 ± 0.0026 µM. Binder B6 has a Kd of 0.0254 ± 0.0011 µM.
